Values of other authors as cited in paper PMC8438204, “Unraveling the Thermodynamics of Ultra-tight Binding of Intrinsically Disordered Proteins” (Frontiers in Molecular Biosciences, 2021).

Biological target: prothymosin α (Homo sapiens) (UniProt P06454)
Sequence (P06454 2-111): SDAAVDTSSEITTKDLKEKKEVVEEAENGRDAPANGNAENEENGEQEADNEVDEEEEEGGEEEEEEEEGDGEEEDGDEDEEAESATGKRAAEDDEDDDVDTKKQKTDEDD

Sequence of histone H1 (P07305 2-194): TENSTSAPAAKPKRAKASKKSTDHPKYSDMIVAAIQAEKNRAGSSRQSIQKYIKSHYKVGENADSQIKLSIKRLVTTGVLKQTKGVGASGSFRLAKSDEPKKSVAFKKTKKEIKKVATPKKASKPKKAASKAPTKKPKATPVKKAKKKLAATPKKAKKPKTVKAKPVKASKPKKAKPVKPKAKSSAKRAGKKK

Kd: 2 pM
Substance: histone H1 (from UniProt P07305)
